Experimental data reported in patent US20220403009A1 (IGM BIOSCIENCES, published 2022).
Substitutions are numbered along the chain they refer to. Read-outs that look alike come from different tables or passages of the source.

Key:
[1] = target: T1, SARS-CoV-2 spike protein on pseudovirus (SARS-CoV-2, UniProt P0DTC2 13-1273); assay: cell-based or functional assay
[2] = target: T2, SARS-CoV-2 spike protein on live SARS-CoV-2 virus (SARS-CoV-2, UniProt P0DTC2 13-1273); assay: cell-based or functional assay
[3] = target: T2, SARS-CoV-2 spike protein on live …; assay: cell-based or functional assay; remark: listed apart in the source
[4] = target: recombinant SARS-CoV-2 spike (S) protein trimer (SARS-CoV-2, UniProt P0DTC2 13-1213)
[5] = target: T1, SARS-CoV-2 spike protein on pseudovirus; assay: cell-based or functional assay; remark: listed apart in the source
[6] = target: SARS-CoV-1 spike protein on HIV-based pseudovirus (SARS-CoV, UniProt P59594 14-1255); assay: cell-based or functional assay

B1: Ab1 IgM (antibody)
VH: EVQLVESGGGLVQPGGSLRLSCAASGFTVSSNYMSWVRQAPGKGLEWVSVIYSGGSTFYADSVKGRFTISRDNSMNTLFLQMNSLRAEDTAVYYCARVLPMYGDYLDYWGQGTLVTVSS
VL: not shown
chain: not shown
For B1, the “IgM Fold Improvement Over IgG1” value [1] was 67 fold, the “IgM IC50, SARS-CoV-2 pseudovirus neutralization” value [1] was 0.15 ng/mL and the “IgM Fold Improvement Over IgG1” value [2] was 10 fold. For the same binder, the “IgM IC50, SARS-CoV-2 live virus microneutralization” value [2] was 13 ng/mL.

B2: Ab1 IgG (antibody, V domains shown)
VH: B1 VH
VL: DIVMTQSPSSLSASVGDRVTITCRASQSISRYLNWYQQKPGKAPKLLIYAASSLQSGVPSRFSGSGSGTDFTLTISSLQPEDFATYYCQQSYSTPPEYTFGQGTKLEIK
In the case of B2, the “IgG IC50, SARS-CoV-2 pseudovirus neutralization” value [1] is reported as 10 ng/mL and the “IgG IC50, SARS-CoV-2 live virus microneutralization” value [2] is reported as 130 ng/mL.

B3: Ab3 IgM (antibody)
VH: QVQLVESGGGLVKPGGSLRLSCAASGFTFSDYYMSWIRQAPGKGLEWVSYITYSGSTIYYADSVKGRFTISRDNAKSSLYLQMNSLRAEDTAVYYCARDRGTTMVPFDYWGQGTLVTVSS
VL: DIQMTQSPSSLSASVGDRVTITCQASQDITNYLNWYQQKPGKAPKLLIYAASNLETGVPSRFSGSGSGTDFTFTISGLQPEDIATYYCQQYDNLPLTFGGGTKVEIK
chain: not shown
For B3, the “IgM IC50, SARS-CoV-2 pseudovirus neutralization” value [1] was 0.11 ng/mL and the “IgM IC50, SARS-CoV-2 live virus microneutralization” value [2] was 3.8 ng/mL.

B4: Ab3 IgG (antibody, V domains shown)
VH: B3 VH
VL: B3 VL
In the case of B4, the “IgG IC50, SARS-CoV-2 pseudovirus neutralization” value [1] is reported as 0.57 ng/mL.

B5: Ab7 IgM (antibody)
VH: EVQLVESGGGLVQPGGSLRLSCAVSGFTVSSNYMSWVRQAPGKGLEWVSVIYTGGGTYYADSVKGRFTISRDNSKNTLYLQMNTLRAEDTTVYYCARGDGSYYRAFDYWGQGTLVTVSS
VL: DIQMTQSPSSLSASVGDRVTITCRASQSISNYLNWYHQKPGKAPKLLIYAASSLQSGVPSRFSGSGSGTDFTLTISSLQPEDFATYYCQQSYSPPPTFGPGTKVEIK
chain: not shown
B5 was tested, and the “IgM Fold Improvement Over IgG1” value [1] was 8.8 fold, the “IgM IC50, SARS-CoV-2 pseudovirus neutralization” value [1] was 0.042 ng/mL and the “IgM Fold Improvement Over IgG1” value [2] was 19 fold. For the same binder, the “IgM IC50, SARS-CoV-2 live virus microneutralization” value [2] was 1.6 ng/mL.

B6: Ab7 IgG (antibody, V domains shown)
VH: B5 VH
VL: B5 VL
B6 was tested, and the “IgG IC50, SARS-CoV-2 pseudovirus neutralization” value [1] was 0.37 ng/mL and the “IgG IC50, SARS-CoV-2 live virus microneutralization” value [2] was 30 ng/mL.

B7: Ab8 IgM (antibody)
VH: EVQLVESGGGLIQPGGSLRLSCAASGFTVSRNYMNWVRQAPGKGLEWVSVIYSGGSTFYADSVKGRFTISRDNSKNTLYLQMNSLRAEDTAVYYCARDASSYGIDWGQGTLVTVSS
VL: not shown
chain: not shown
For B7, the “IgM IC50, SARS-CoV-2 pseudovirus neutralization” value [1] was 2.7 ng/mL, the “IgM Fold Improvement Over IgG1” value [2] was 3.3 fold and the “IgM IC50, SARS-CoV-2 live virus microneutralization” value [2] was 28 ng/mL.

B8: Ab8 IgG (antibody, V domains shown)
VH: B7 VH
VL: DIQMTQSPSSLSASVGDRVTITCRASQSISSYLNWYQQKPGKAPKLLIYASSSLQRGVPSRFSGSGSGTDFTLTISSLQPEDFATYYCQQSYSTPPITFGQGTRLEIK
For B8, the “IgG IC50, SARS-CoV-2 pseudovirus neutralization” value [1] was 1.9 ng/mL and the “IgG IC50, SARS-CoV-2 live virus microneutralization” value [2] was 93 ng/mL.

B9: Ab11 IgM (antibody)
VH: QVQLVQSGAEVKKPGSSVKVSCKASGGTFSSYAISWVRQAPGQGLEWMGGNIPIFGTANYAQKFQGRVTITADESTSTAYMELSSLRSEDTAVYYCARGVGYRGVIPLNWFDPWGQGTVVTVSS
VL: EIVMTQSPATLSVSPGERATLSCRASQSVSSDLAWYQHKPGQAPRLLIYGASTRATGIPVRFSGSGSGTEFTLTISSLQSEDFAVYYCQQYNNWPPFTFGGGTKVEIK
chain: not shown
B9 was tested, and the “IgM Fold Improvement Over IgG1” value [3] was greater than 870 fold, the “IgM IC50, SARS-CoV-2 live virus microneutralization” value [3] was 57 ng/mL and the “IgM Fold Improvement Over IgG1” value [1] was 86 fold. The “IgM IC50, SARS-CoV-2 pseudovirus neutralization” value [1] was 3.7 ng/mL.

B10: Ab11 IgG (antibody, V domains shown)
VH: B9 VH
VL: B9 VL
With B10 the “IgG IC50, SARS-CoV-2 live virus microneutralization” value [3] was greater than 50000 ng/mL and the “IgG IC50, SARS-CoV-2 pseudovirus neutralization” value [1] was 320 ng/mL.

B11: Ab4 IgM (antibody)
VH: QVQLVESGGGVVQPGRSLRLSCAASGFTFSNYAMYWVRQAPGKGLEWVAVISYDGSNKYYADSVKGRFTISRDNSKNTLYLQMNSLRTEDTAVYYCASGSDYGDYLLVYWGQGTLVTVSS
VL: QSALTQPASVSGSPGQSITISCTGTSSDVGGYNYVSWYQQHPGKAPKLMIYDVSKRPSGVSNRFSGSKSGNTASLTISGLQSEDEADYYCNSLTSISTWVFGGGTKLTVL
chain: not shown
With B11 the “IgM Fold Improvement Over IgG1” value [1] was 31 fold, the “IgM IC50, SARS-CoV-2 pseudovirus neutralization” value [1] was 0.058 ng/mL and the “IgM Fold Improvement Over IgG1” value [2] was 59 fold. The “IgM IC50, SARS-CoV-2 live virus microneutralization” value [2] was 3.1 ng/mL.

B12: Ab12 IgG (antibody, V domains shown)
VH: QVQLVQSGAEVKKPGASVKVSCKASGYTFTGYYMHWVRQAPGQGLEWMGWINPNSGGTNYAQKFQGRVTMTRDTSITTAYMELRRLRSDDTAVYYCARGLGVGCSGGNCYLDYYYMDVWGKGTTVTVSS
VL: B11 VL with S82A, A86G, N91S, L93Y, I96S
For B12, the “IgG IC50, SARS-CoV-2 live virus microneutralization” value [3] was 2700 ng/mL and the “IgG IC50, SARS-CoV-2 pseudovirus neutralization” value [1] was 77 ng/mL.

B13: Ab12 IgM (antibody)
VH: not shown
VL: B11 VL with S82A, A86G, N91S, L93Y, I96S
chain: not shown
In the case of B13, the “IgM Fold Improvement Over IgG1” value [3] is reported as 330 fold, the “IgM IC50, SARS-CoV-2 live virus microneutralization” value [3] is reported as 8.1 ng/mL and the “IgM Fold Improvement Over IgG1” value [1] is reported as 180 fold. The “IgM IC50, SARS-CoV-2 pseudovirus neutralization” value [1] was 0.42 ng/mL.

B14: Ab4 IgG (antibody, V domains shown)
VH: B11 VH
VL: B11 VL
In the case of B14, the “IgG IC50, SARS-CoV-2 pseudovirus neutralization” value [1] is reported as 1.8 ng/mL and the “IgG IC50, SARS-CoV-2 live virus microneutralization” value [2] is reported as 180 ng/mL.

B15: Ab10 IgM (antibody)
VH: QITLKESGPTLVKPTQTLTLTCTFSGFSLSTSGVGVGWIRQPPGKALEWLALIYWDDDKRYSPSLKSRLTITKDTSKNQVVLTMTNMDPVDTATYYCAHHKIERIFDYWGQGTLVTVSS
VL: QSALAQPASVSGSPGQSITISCTGTSSDVGAYNYVSWYQQHPGKAPKLMIYDVSKRPSGVSNRFSGSKSGNTASLTISGLQAEDEADYYCSSYTTSSTVFGGGTKLTVL
chain: not shown
B15 was tested, and the “IgM Fold Improvement Over IgG1” value [3] was 390 fold, the “IgM IC50, SARS-CoV-2 live virus microneutralization” value [3] was 1.2 ng/mL and the “EC50 (read off the curve)” value [4] was roughly 0.3 nM. The “IgM Fold Improvement Over IgG1” value [1] was 64 fold and the “IgM IC50, SARS-CoV-2 pseudovirus neutralization” value [1] was 0.092 ng/mL.

B16: Ab10 IgG (antibody, V domains shown)
VH: B15 VH
VL: B15 VL
With B16 the “IgG IC50, SARS-CoV-2 live virus microneutralization” value [3] was 470 ng/mL, the “EC50 (read off the curve)” value [4] was roughly 1 nM and the “IgG IC50, SARS-CoV-2 pseudovirus neutralization” value [1] was 5.9 ng/mL.

B17: CR3022 IgA2m2 + J (antibody)
VH: QMQLVQSGTEVKKPGESLKISCKGSGYGFITYWIGWVRQMPGKGLEWMGIIYPGDSETRYSPSFQGQVTISADKSINTAYLQWSSLKASDTAIYYCAGGSGISTPMDVWGQGTTVTVSS
VL: not shown
chain: not shown
In the case of B17, the “IC50, SARS-CoV-2 pseudovirus neutralization” value [5] is reported as greater than 100 mg/mL and the “IC50, SARS-CoV-1 pseudovirus neutralization” value [6] is reported as 2.3 µg/mL.

B18: CR3022 IgM + J (antibody)
VH: B17 VH
VL: not shown
chain: not shown
B18 was tested, and the “IC50, SARS-CoV-2 pseudovirus neutralization” value [5] was greater than 100 mg/mL and the “IC50, SARS-CoV-1 pseudovirus neutralization” value [6] was 0.47 µg/mL.

B19: CR3022 IgA1 + J (antibody)
VH: B17 VH
VL: not shown
chain: not shown
For B19, the “IC50, SARS-CoV-2 pseudovirus neutralization” value [5] was greater than 100 mg/mL and the “IC50, SARS-CoV-1 pseudovirus neutralization” value [6] was 1.9 µg/mL.
